Molecular target: EGFR wild-type extracellular domain (human, UniProt P00533 25-645)
Experiment: UV (254 nm) cross-linking MALDI-MS; 1:1 molar; peptide 495-500 (domain IV) linked to AGGC and GAGGC; RT-qPCR: 15 min 37 C, 100 ug/ml polyinosine, DPBS washes; flow cytometry: DPBS, 37 C, 30 min; confocal: DMEM without FBS; UV cross-linking buffer not given
Conditions: protein: recombinant

B1: CL4 (structured_RNA)
RNA: GCCUUAGUAACGUGCUUUGAUGUCGAUUCGACAGGAGGC
modifications: 2'F-pyrimidines (2'F-C, 2'F-U)
binding result: binds

From publication PMC4741949, “Aptamer targeting EGFRvIII mutant hampers its constitutive autophosphorylation and affects migration, invasion and proliferation of glioblastoma cells”
